According to paper PMC8872791, “MadR mediates acyl CoA-dependent regulation of mycolic acid desaturation in mycobacteria” (Proceedings of the National Academy of Sciences of the …, 2022):

T1: MadR (Mycobacterium tuberculosis H37Rv, UniProt P9WMD9 1-234)
T1 sequence: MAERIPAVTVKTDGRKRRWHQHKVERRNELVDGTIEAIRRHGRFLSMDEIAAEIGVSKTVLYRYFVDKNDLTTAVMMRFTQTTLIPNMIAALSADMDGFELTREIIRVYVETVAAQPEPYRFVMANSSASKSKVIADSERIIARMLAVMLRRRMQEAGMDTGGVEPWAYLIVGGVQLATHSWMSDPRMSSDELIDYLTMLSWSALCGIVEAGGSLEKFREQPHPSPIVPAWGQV


Target: T1, MadR
Experiment: EMSA
Settings: protein: recombinant; tags: His-tag implied (pET28a, cobalt IMAC); chain copies: 2; blunt

Binder	binding result
desA2 control (substituted motif) (dsDNA) DNA 1: TTCGAGAACGATGCAAATACGAAGGTATACTACCTCATGGTAATCAAACC DNA 2: GGTTTGATTACCATGAGGTAGTATACCTTCGTATTTGCATCGTTCTCGAA	no binding
desA1 control (substituted motif) (dsDNA) DNA 1: CCGTTCGAGACGACTAATGAGGTGCAACAATATACGATCACCATCGGTA DNA 2: TACCGATGGTGATCGTATATTGTTGCACCTCATTAGTCGTCTCGAACGG	no binding
